Patent publication US20110154541A1

Molecular target: horse-heart mitochondrial cytochrome c (horse) (UniProt P00004)
Test: cell-based or functional assay

Sequence of UniProt P00004 (P00004 2-105 limits assumed): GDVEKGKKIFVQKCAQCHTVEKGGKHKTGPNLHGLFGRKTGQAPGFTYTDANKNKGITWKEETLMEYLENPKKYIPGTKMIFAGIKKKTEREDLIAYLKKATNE

- rate of cc reduction (light-dependent, increase of the cc alpha peak at 550 nm), with DCMU (µmol/(mg chl·h)): 20
- rate of cc reduction (light-dependent, increase of the cc alpha peak at 550 nm), without DCMU (µmol/(mg chl·h)): 12
Substance: Photosystem II with variant D1 protein D1-K238E, in thylakoid membranes isolated from the Synechocystis sp. PCC 6803 Glu mutant strain (from UniProt P16033 1-344)
